T1: human Type 1 mutCALR on Ba/F3 cells expressing MPL and Type 1 mutCALR (human)
T1 chain: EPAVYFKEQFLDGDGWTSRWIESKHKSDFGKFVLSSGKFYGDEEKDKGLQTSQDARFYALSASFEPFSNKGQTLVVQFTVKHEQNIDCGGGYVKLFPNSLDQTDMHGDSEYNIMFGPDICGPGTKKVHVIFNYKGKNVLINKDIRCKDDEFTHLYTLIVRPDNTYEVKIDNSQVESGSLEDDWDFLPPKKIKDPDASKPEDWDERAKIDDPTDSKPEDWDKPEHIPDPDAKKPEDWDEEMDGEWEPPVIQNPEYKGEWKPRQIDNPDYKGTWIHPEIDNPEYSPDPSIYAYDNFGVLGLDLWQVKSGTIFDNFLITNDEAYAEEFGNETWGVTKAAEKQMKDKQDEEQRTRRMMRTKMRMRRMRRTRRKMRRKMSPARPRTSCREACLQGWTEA

T2: human mutCALR on BaF3 cells stably expressing human MPL and human mutCALR (MPL-mutCALR cells) (human)
T2 construct: also called mutant calreticulin
T2 chain: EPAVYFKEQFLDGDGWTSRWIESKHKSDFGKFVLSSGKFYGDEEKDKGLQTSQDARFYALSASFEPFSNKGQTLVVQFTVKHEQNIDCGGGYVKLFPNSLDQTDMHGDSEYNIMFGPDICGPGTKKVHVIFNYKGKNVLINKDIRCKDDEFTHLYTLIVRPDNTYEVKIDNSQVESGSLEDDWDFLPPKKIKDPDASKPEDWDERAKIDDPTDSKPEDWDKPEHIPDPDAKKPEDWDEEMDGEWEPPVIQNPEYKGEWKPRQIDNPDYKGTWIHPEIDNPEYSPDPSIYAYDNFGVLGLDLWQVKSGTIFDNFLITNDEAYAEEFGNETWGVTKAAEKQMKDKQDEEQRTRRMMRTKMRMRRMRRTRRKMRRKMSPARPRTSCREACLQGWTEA


What was measured:
[1] = biological target: T1, human Type 1 mutCALR on Ba/F3 cells …; assay: cell-based or functional assay
[2] = biological target: T2, human mutCALR on BaF3 cells stably …; assay: flow cytometry, BaF3 MPL-mutCALR cells
Procedure: On the day of the assay, cells were washed and resuspended in assay buffer. Approximately 200,000 cells/well were added to 96-well plates and stained with the indicated concentration of antibodies for 30 minutes on ice. Cells were then washed and stained with goat anti-human secondary conjugated to R-phycoerythrin (R-PE) (Jackson Immuno Research Laboratories) for 30 minutes on ice. The cells were then washed and analyzed by flow cytometry.

Binder	IC50, inhibition of pSTAT5 [1]	EC50 [2]	MPL-mutCALR AUC [2]
anti-mutCALR antibody clone 1 (antibody, human IgG1, lambda, V domains shown, human IgG1) VH: EVQLVQSGAEVKKPGASVKVSCKVSGYTLTELSMQWVRQAPGKGLEWMGGFDPDDGETMYAEKFQGRLTVTEDTSTDTVYMELRSLTSEDTALYFCATSPGYDFFDYWGQGTLVTVSS VL: SYVLTQPPSVSVAPGKTARITCGGNYIGSKSVHWYQQKPGQAPVLVVYDDGDRPSGIPARFSGSNSGNTATLTISRVEAGDEADYYCQVWDSISDHVVFGGGTKLTVLG	0.47 µg/mL	0.01 µg/mL	52800
anti-mutCALR antibody clone 15 (antibody, human IgG1, lambda, human IgG1) heavy: not shown light: SYELTQPPSVSVAPGKTARITCGGDNIGSKSVHWYQQKPGQAPVLVVYDDSDRPSGIPERFSGSNSGNTATLTINRVEAGDEADYYCQVWDSSNDLLIFGGGTKLTVLGQPKAAPSVTLFPPSSEELQANKATLVCLISDFYPGAVTVAWKADSSPVKAGVETTTPSKQSNNKYAASSYLSLTPEQWKSHRSYSCQVTHEGSTVEKTVAPTECS	0.041 µg/mL	–	87600
anti-mutCALR antibody clone 7 (antibody, human IgG1, lambda, V domains shown, human IgG1) VH: EVQLVQSGAEVKKPGASVKVSCKVSGYTLTELSMQWVRQAPGKGLEWMGGFDPDDGETMYAEKFQGRLTVTEDTSTDTVYMELRSLTSEDTALYFCATSPGYDFFDYWGQGTLVTVSS VL: SYVLTQPPSVSVAPGQTASITCVGTNFGSKNVHWYQQRPGQAPVLVVYDDSDRPSGIPERFSGSNSGNTATLTINRVEAGDEADYYCQVWDSSNDLLIFGGGTKLTVLG	0.049 µg/mL	0.19 µg/mL	66800
anti-mutCALR antibody clone 3 (antibody, human IgG1, lambda, V domains shown, human IgG1) VH: EVQLVQSGAEVKKPGASVKVSCKVSGYTLTELSMQWVRQAPGKGLEWMGGFDPDDGETMYAERFQGRLTVTEDTSTDTVYMELRSLTSEDTALYFCATSPGYDFFDYWGQGTLVTVSS VL: SYVLTQPPSVSVAPGQTARITCGGNNIGSKSVHWYQQKPGQAPVLVVYDDSDRPSGIPERFSGSNSGNTATLTINRVEAGDEADYYCQVWDSSNDLLIFGGGTKLTVLG	0.021 µg/mL	–	102000
anti-mutCALR antibody clone 19 (antibody, human IgG1, lambda, V domains shown) VH: EVQLVQSGAEVKKPGASVKVSCKVSGYTLTELSMQWVRQAPGKGLEWMGGFDPDDGETMYAEKFQGRLTVTEDTPTDTVYMELRSLTSEDTALYFCATSPGYDFFDYWGQGTLVTVSS VL: SYVLTQPLSVSVALGQTARITCGGSNIGDIRVHWYQQKPGQAPVLVVYDDSDRPSGIPERFSGSNSGNTATLTINRVEAGDEADYYCQVWDSSNDLLIFGGGTKLTVLG	0.062 µg/mL	–	91600
anti-mutCALR antibody clone 17 (antibody, human IgG1, lambda, human IgG1) heavy: not shown light: SYVLTQPPSVSVAPGQTARITCGGSDIGDEIVHWYQQKPGQAPVLVVYDDSDRPSGIPERFSGSNSGNTATLTISRAQAGDEADYYCQVWDSSSDHLIFGGGTKLTVLGQPKAAPSVTLFPPSSEELQANKATLVCLISDFYPGAVTVAWKADSSPVKAGVETTTPSKQSNNKYAASSYLSLTPEQWKSHRSYSCQVTHEGSTVEKTVAPTECS	0.031 µg/mL	–	72700
anti-mutCALR antibody clone 12 (antibody, human IgG1, lambda, V domains shown, human IgG1) VH: EVQLVQSGAEVKKPGASVKVSCKVSGYTLTELSMQWVRQAPGKGLEWMGGFDPDGGETMYAEKFQGRLTVTEDTSTDTVYMELRSLTSEDTALYFCATSPGYDFFDYWGQGTLVTVSS VL: SYVLTQPPSVSVAPGQTARVSCGGNNIGSKSVNWYRQKPGQAPVLVIYDDSDRPSGIPERFSGSNSGNTATLTINRVEAGDEADYYCQVWDSSNDLLIFGGGTKLTVLG	0.061 µg/mL	0.02 µg/mL	61000
anti-mutCALR antibody clone 8 (antibody, human IgG1, lambda, V domains shown, human IgG1) VH: QVQLVQSGAEVKKPGSSVKVSCKVSGYTLTELSMQWVRQAPGKGLEWMGGFDPDDGETMYAEKFQGRLTVTEDTSTDTVYMELRSLTSEDTALYFCATSPGYDFFDYWGQGTLVTVSS VL: SYELTQPPSVSVAPGQTARITCGGNNIGSKSVHWYQQKPGQAPVLVVYDDSDRPSGIPERFSGSNSGRTATLTISRVEAGDEADYHCQVWDSSSDHLVFGGGTKLTVLG	0.043 µg/mL	4.12 µg/mL	67400
anti-mutCALR antibody clone 5 (antibody, human IgG1, lambda, V domains shown, human IgG1) VH: EVQLVQSGAEVKKPGASVKVSCKVSGYTLTELSMQWVRQAPGKGLEWMGGFDPDDGETMYAEKFQGRLTVTEDTSTDTVYMELRSLTSEDTALYFCATSPGYDFFDYWGQGTLVTVSS VL: SYVLTQPPSVSVAPGQTASITCVGTNFGSKNVHWYQQRPGQAPVLVVYDDSDRPSGIPERFSGSNSGNTATLTISRVEAGDEADYYCQVWDSSSDHLIFGGGTKLTVLG	0.03 µg/mL	0.09 µg/mL	57100
anti-mutCALR antibody clone 4 (antibody, human IgG1, lambda, V domains shown, human IgG1) VH: EVQLVQSGAEVKKPGASVKVSCKVSGYTLTELSMQWVRQAPGKGLEWMGGFDPDDGETMYAEKFQGRLTVTEDTSTDTVYMELRSLTSEDTALYFCATSPGYDFFDYWGQGTLVTVSS VL: SYVLTQPPSVSVAPGQTARITCGGNNIGSKSVHWYQQKPGQAPVLVVYDDSDRPSGIPERFSGSNSGNTATLTINRVEAGDEADYYCQVWDSSNDLLIFGGGTKLTVLG	0.04 µg/mL	–	74000
anti-mutCALR antibody clone 13 (antibody, human IgG1, lambda, V domains shown, human IgG1) VH: QVQLVQSGAEVKKPGASVKVSCKVSGYTLTELSMQWVRQAPGKGLEWMGGFDPDDGETMYAEKFQGRLTVTEDTSTDTVYMELRSLTSEDTALYFCATSPGYDFFDYWGQGTLVTVSS VL: not shown	0.091 µg/mL	0.04 µg/mL	57700
anti-mutCALR antibody clone 21 (antibody, human IgG1, lambda, V domains shown, human IgG1) VH: EVQLVQSGAEVKKPGASVKVSCEVSGYTLTELSMQWVRQAPGKGLEWMGGFDPDDGETMYAEKFQGRLTVTEDTSTDTVYMELRSLTSEDTALYFCATSPGYDFFDYWGQGTLVTVSS VL: SYVLTQPPSVSVAPGQTARVSCGGNNIGSKSVNWYRQKPGQAPVLVIYDDSDRPSGIPERFSGSNSGNTATLTISRVEAGDEADYYCQVWDSSNDLLIFGGGTKLTVLG	0.032 µg/mL	0.7 µg/mL	70100
anti-mutCALR antibody clone 9 (antibody, human IgG1, lambda, V domains shown, human IgG1) VH: EVQLVQSGAEVKKPGASVKVSCKVSGYTLTELSMQWVRQAPGKGLEWMGGFDPDDGETMYAEKFQGRLTVTEDTSTDTVYMELRSLTSEDTALYFCATSPGYDFFDYWGQGTLVTVSS VL: SYVLTQPPSVSVAPGQTARIPCGGNNIGSKSVHWYQQKPGQAPVLVVYDDRDRPSGIPERFSGSNSGNTATLTINRVEAGDEADYYCQVWDSSNDLLIFGGGTKLTVLG	0.056 µg/mL	–	75300
anti-mutCALR antibody clone 20 (antibody, human IgG1, lambda, V domains shown, human IgG1) VH: EVQLVQSGAEVKKPGASVKVSCKVSGYTLTELSMQWVRQAPGKGLEWMGGFDPDDGETMYAEKFQGRLTVTEDTSTDTVYMELRSLTSEDTALYFCATSPGYDFFDYWGQGTLVTVSS VL: SYVLTQPPSVSVAPGKTARITCGGNNIGSKGVHWYQQKPGQAPVLVVYDDSDRPSGIPERFSGSNSGNTATLTINRVEAGDEADYYCQVWDSSNDLLIFGGGTKLTVLG	0.018 µg/mL	–	92700
anti-mutCALR antibody clone 10 (antibody, human IgG1, lambda, V domains shown, human IgG1) VH: EVQLVQSGAEVKKPGASVKVSCKVSGYTLTELSMQWVRQAPGKGLEWMGGFDPDDGETMYAEKFQGRLTVTEDTSTDTVYMELRSLTSEDTALYFCATSPGYDFFDYWGQGTLVTVSS VL: SYELTQPPSVSVAPGQTARIPCGGNNIGSEGVHWYQQKPGQAPVLVVYDDSDRPSGIPERFSGSNSGNTATLTISRVEAGDEADYYCQVWDSSNDLLIFGGGTKLTVLG	0.055 µg/mL	–	72100
anti-mutCALR antibody clone 16 (antibody, human IgG1, lambda, V domains shown, human IgG1) VH: EVQLVQSGAEVKKPGASVKVSCKVSGYTLTELSMQWVRQAPGKGLEWMGGFDPDDGETMYAEKFQGRLTVTEDTSTDTVYMELRSLTSEDTALYFCATSPGYDFFDYWGQGTLVTVSS VL: SYVLTQPPSVSVAPGKTARITCGGNNTGSKSVHWYQQKPGQAPVLVVYDDSDRPSGIPERFSGSNSGNTATLTINRVEAGDEADYYCQVWDSSNDLLIFGGGTKLTVLG	0.028 µg/mL	0.04 µg/mL	63200
anti-mutCALR antibody clone 18 (antibody, human IgG1, lambda, V domains shown, human IgG1) VH: EVQLVQSGAEVKKPGASVKVSCKVSGYTLTELSMQWVRQAPGKGLEWMGGFDPDDGETMYAEKFQGRLTVTEDTSTDTVYMELRSLTSEDTALYFCATSPGYDFFDYWGQGTLVTVSS VL: SYVLTQPPSVSVAPGKTARITCGGNNIGSKSVHWYQQKPGQAPVLVVYDDSDRPLGIPERFSGSNSGNTATLTINRVEAGDEADYYCQVWDSSNDLLIFGGGTKLTVLG	0.036 µg/mL	–	91900
anti-mutCALR antibody clone 2 (antibody, human IgG1, lambda, V domains shown, human IgG1) VH: EVQLVQSGAEVKKPGASVKVSCKVSGYTLTELSMQWVRQAPGKGLEWMGGFDPDDGETMYAEKFQGRLTVTEDTSTDTVYMELRSLTSEDTALYFCATSPGYDFFDYWGQGTLVTVSS VL: SYELTQPPSVSVAPGKTARITCGGDNIGSKSVHWYQQKPGQAPVLVVYDDSDRPSGIPERFSGSNSGNTATLTISRVEAGDEADYYCQVWDSSIDHLIFGGGTKVTVLG	0.12 µg/mL	0.01 µg/mL	60400

Reference: patent publication US20230272055A1 (Incyte, published 2023)
